Assay results: the supplement of paper PMC10567573

B1: ANKRD9 (parent)
chain: VGAAGSARQELLGDRPRWQRLLGE
B2: KLHL14 (parent)
chain: NETGYLSSVECYNLETNEWRYVSS

Variants of: B1
Assay: protein stability index of a GFP-peptide fusion (GPS, HEK-293T) (PSI 1-6); higher = more stable
Settings: c terminus: a fixed tail appended
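Note: lentivirally expressed fusions sorted by FACS into six bins by GFP to DsRed ratio, PSI derived from sequencing read proportions per bin multiplied by bin number.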

Protein stability index of substitutions, site by site:
R17: D 3.41, I 2.83, A 3.33, S 4.09, M 2.72, Y 2.37, G 3.5, W 2.61, K 3.53, T 3.43, F 1.94, N 3.29, V 3, E 3.81, P 4.29, Q 3.47, L 2.73, H 4.01
P16: V 3.35, C 3.24, M 2.94, S 3.16, D 3.1, Y 3.28, L 3.12, K 3.68, E 4.72, A 3.68, G 2.98, W 1.84, H 2.83, I 2.92, R 3.31, N 3.88, Q 2.65
R20: I 2.07, P 2.19, W 3.32, E 2.18, F 3.28, C 2.71, G 2.74, Q 2.68, T 2.67, Y 2.62, H 2.52, N 3.46, A 2.58, S 2.87, M 2.81, V 2.81, D 1.25, K 2.71, L 2.72
D14: I 2.56, N 2.6, Q 2.35, Y 2.86, T 2.94, G 3.18, F 2.12, A 2.83, C 1.39, P 3.13, H 3.24, S 3.25, V 2.27, E 3.27, M 2.76, R 2.75, L 2.36
R15: V 3.41, F 2.75, H 4.05, D 4.12, L 2.51, W 3.1, T 3.68, P 3.11, K 3.06, S 4.15, Q 3.96, C 3.11, Y 2.66, I 2.73, E 3.27, G 3.75, M 3.05, N 3.6
L22: E 3.87, D 4.11, Q 3.64, A 3.43, I 3.18, M 2.28, Y 2.42, T 3.69, N 3.13, C 3.35, R 3.67, S 3.96, P 3.77, K 3.57, G 3.31, W 2.96, H 3.53, F 2.93, V 3.68
G23: C 2.88, K 3.19, Y 2.88, S 4.39, L 3.58, M 3.23, V 2.78, P 3.22, F 2.71, R 2.99, W 2.64, N 3.12, E 3.39, H 2.61, T 2.98, A 3.1, D 3.84, Q 3.4, I 2.88
L12: G 3.79, W 2.35, R 2.12, T 3, V 2.49, D 4.17, P 3.55, M 3.43, Q 3.27, F 2.57, Y 3.21, N 3.43, K 3.95, I 4.09, A 3.64, S 4.15, H 3.6, E 3.7
G13: T 2.97, D 2.73, K 3.39, I 2.86, A 3.9, Y 2.77, V 2.63, P 3.7, E 3.92, W 1.9, M 3.02, H 3.46, R 2.81, L 2.66, C 2.77, N 3.55, S 2.72, Q 2.76
L11: V 3.98, T 3.6, Q 3.8, R 2.48, W 2.61, K 3.69, P 3.86, Y 3.5, S 4.02, N 3.71, M 3.77
L21: E 4.67, H 2.86, W 3.23, I 2.93, V 3.67, Y 2.28, F 2.68, N 3.71, Q 3.32, G 2.93, S 4.52, R 3.11, D 4.72, M 3.03, C 3.75, K 4, A 3.28, T 3.13
W18: R 4.93, S 4.2, T 4.63, P 4.98, M 3.57, N 4.11, Y 3.78, Q 4.1, V 4.4, G 5.32, A 4.38, D 4.63, L 4.36, K 4.64, H 4.14, E 4.45, F 3.54
E24: N 3.17, H 2.96, C 2.1, P 2.75, K 3.7, W 2.33, L 2.38, R 3.26, F 2.68, S 2.77, A 3, T 3, G 3.2, V 2.45, I 2.27, D 3.13, Q 2.63, M 3.34, Y 2.37
Q19: V 2.9, T 2.49, F 2.51, C 3.27, D 2.83, M 3.26, L 2.56, P 3.79, E 2.58, N 3.94, Y 2.59, G 2.94, W 2.81, H 3.14, S 2.91, I 2.98, A 2.15

Variants of: B2
Assay: as above
Settings: c terminus: a fixed tail appended

Protein stability index, by site and new letter:
G4: K 3.56, M 2.77, D 4, T 2.8, P 3.92, Q 3.77, N 3.82, C 1.98, L 2.67, H 3.17, F 2.39, R 2.64, Y 2.46, W 1.68, E 3.56, S 3.22, V 2.58, A 3.75, I 2.34
T3: R 2.96, E 3.53, Q 3.4, A 3.3, F 2.45, S 3.4, V 2.92, N 3.78, K 2.67, W 2.53, D 4.12, G 3.01, Y 3.21, P 3.85, H 3.12, L 3.08, C 2.8, M 2.78, I 3.4
Y5: D 4.57, N 4.2, G 4.01, K 3.41, A 4.24, F 3.71, P 4, C 3.9, E 4.24, L 3.46, H 4.18, I 4, M 3.64
N1: R 2.55, H 3.44, S 3.69, W 1.71, Y 2.79, P 3.49, V 3.3, G 2.71, I 2.43, M 2.18, L 3.04, K 3.55, Q 3.31, A 3.05, F 2.63, E 3.95, D 3.23, C 2.41, T 2.83
E2: M 2.55, I 2.37, D 3.52, S 2.78, R 2.49, F 1.72, W 3.64, N 2.78, H 2.02, Q 2.35, L 2.09, K 2.69, T 2.67, A 2.68, Y 1.88, C 2.7, V 2.51, P 2.72, G 2.43
